Laboratory results reported in patent publication US20250121082A1 (SHANDONG BOAN BIOTECHNOLOGY, published 2025).

Key:
[1] = target: T1, Mouse CD228 protein (mouse, UniProt Q9R0R1 20-708, limits assumed); assay: SPR, BIAcore 8K; antibody on ProA chip, CD228 protein as analyte
T1 construct: Recombinant His-tagged protein from CHO cells
T1 chain: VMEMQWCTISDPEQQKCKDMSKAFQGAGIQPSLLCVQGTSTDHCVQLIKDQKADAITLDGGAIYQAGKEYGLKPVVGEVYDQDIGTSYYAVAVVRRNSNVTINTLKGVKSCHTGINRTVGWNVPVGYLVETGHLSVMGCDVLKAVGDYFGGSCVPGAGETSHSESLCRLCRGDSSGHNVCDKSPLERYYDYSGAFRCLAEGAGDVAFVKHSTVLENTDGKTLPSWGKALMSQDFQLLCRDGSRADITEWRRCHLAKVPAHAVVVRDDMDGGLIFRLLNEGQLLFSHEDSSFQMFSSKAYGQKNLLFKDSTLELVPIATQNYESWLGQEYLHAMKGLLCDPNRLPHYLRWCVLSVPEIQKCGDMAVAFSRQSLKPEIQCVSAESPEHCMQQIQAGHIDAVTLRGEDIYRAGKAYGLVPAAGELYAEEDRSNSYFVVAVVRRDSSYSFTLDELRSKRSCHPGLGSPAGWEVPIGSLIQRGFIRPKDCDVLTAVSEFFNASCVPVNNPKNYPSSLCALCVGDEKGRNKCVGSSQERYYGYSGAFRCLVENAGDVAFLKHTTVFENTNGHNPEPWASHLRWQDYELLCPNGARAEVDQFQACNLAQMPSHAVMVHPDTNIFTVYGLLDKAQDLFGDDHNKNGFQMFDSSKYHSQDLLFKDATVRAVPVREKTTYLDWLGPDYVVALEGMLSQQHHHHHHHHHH
Experimental: The binding kinetics of the antibodies to the CD228 proteins was measured using the BIAcore 8K system based on surface plasmon resonance (SRP). CD228 antibodies were immobilized on ProA chips at a concentration of 2 μg/mL, and the binding activity of the CD228 antibodies to human, monkey, and mouse CD228 proteins was analyzed. Human, monkey and mouse CD228 proteins were serially 2-fold diluted from 50 nM to 5 concentrations with an HBS-EP+ buffer. The binding kinetics of the CD228 proteins were analyzed by Biacore, and the affinity activity KD values were calculated by fitting.

[2] = target: T2, Human CD228 protein (human, UniProt P08582 20-708, limits assumed); assay: Octet competition on His-chip CD228; competitor: CA13
T2 construct: Recombinant protein made in CHO cells, purified over a Ni column; The printed entry begins with the leader (MRGPSG...) and ends with ten His; also called hCD228; CD228-His protein
T2 sequence: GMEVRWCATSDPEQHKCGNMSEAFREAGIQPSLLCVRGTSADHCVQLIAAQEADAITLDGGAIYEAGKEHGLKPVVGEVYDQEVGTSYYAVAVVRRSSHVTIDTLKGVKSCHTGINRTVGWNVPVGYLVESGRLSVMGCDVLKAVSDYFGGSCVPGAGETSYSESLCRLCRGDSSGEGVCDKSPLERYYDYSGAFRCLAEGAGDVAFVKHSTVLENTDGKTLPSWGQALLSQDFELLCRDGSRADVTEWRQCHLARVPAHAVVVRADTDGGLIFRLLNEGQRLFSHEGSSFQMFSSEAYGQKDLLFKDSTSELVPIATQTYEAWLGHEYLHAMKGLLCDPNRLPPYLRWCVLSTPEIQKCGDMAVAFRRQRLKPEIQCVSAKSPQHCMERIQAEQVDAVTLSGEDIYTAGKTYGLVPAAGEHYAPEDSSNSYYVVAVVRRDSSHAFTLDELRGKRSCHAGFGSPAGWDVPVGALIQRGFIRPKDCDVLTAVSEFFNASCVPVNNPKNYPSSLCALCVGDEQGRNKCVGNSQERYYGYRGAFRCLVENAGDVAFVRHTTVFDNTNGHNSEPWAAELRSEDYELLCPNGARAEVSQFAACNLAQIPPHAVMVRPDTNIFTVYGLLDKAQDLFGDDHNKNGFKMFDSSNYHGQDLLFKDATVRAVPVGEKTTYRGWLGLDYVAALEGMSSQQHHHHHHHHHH
Experimental: (§1) CD228 proteins were immobilized on His chips at 10 μg/mL with a threshold of 0.5 nm. The first CD228 antibody (30 μg/mL) was immobilized, and the competitive binding of the second CD228 antibody (30 μg/mL) was analyzed. The Octet 8K system was used to analyze the response of antibody 2 and to determine whether antibody 1 and antibody 2 were in competition.
(§2) The final competition analysis was conducted using the following calculation method: 1—response value/blank value.

[3] = target: T2, Human CD228 protein; assay: Octet competition on His-chip CD228; competitor: CA149
Experimental: as §1, §2

[4] = target: T2, Human CD228 protein; assay: Octet, CD228 on His chip; PBST buffer in place of the first antibody
Experimental: as §1

[5] = target: T2, Human CD228 protein; assay: Octet competition on His-chip CD228; competitor: CA185
Experimental: as §1, §2

[6] = target: T2, Human CD228 protein; assay: Octet competition on His-chip CD228; competitor: hl49
Experimental: as §1

[7] = target: T2, Human CD228 protein; assay: Octet competition on His-chip CD228; competitor: CA518
Experimental: as §1, §2

[8] = target: T2, Human CD228 protein; assay: Octet competition on His-chip CD228; competitor: hl49; remark: listed apart in the source
Experimental: as §1, §2

[9] = target: T2, Human CD228 protein; assay: Octet competition on His-chip CD228; competitor: CA67
Experimental: as §1, §2

[10] = target: T2, Human CD228 protein; assay: Octet competition on His-chip CD228; competitor: CA518; remark: listed apart in the source
Experimental: as §1

[11] = target: T2, Human CD228 protein; assay: Octet competition on His-chip CD228; competitor: BA352
Experimental: as §1

[12] = target: T2, Human CD228 protein; assay: Octet competition on His-chip CD228; competitor: CA149; remark: listed apart in the source
Experimental: as §1

B1: CA13 (antibody, human IgG1, kappa, V domains shown)
VH: EVQLVESGGGVVQPGRSLRLSCAASGFTFSSYAMHWVRQAPGKGLEWVAVISYDGSNKYYADSVKGRFTISRDNSKNTLFLQMNSLRAEDTAVYYCARDVYHYGSRSPYYYGMDVWGQGTTVTVSS
VL: DIVMTQSPSSLSASVGDRVTITCRASQGISNYLAWFQQKPGKVPKLLIYAASTLQSGVPSRFSGSGSGTDFTLTISSLQPEDVATYYCQKYNSAPFTFGPGTKVDIKR
notes: Intact IgG1 from fully human antibody-transgenic mice
[1]
  binding result: no binding
[2]
  competition (1-response value/blank value): 100%
[3]
  competition (1-response value/blank value): 101%
[4]
  Octet response value (blank value, PBST buffer): 0.393
[5]
  competition (1-response value/blank value): 101%
[6]
  Octet response value: 0.353
[7]
  competition (1-response value/blank value): 102%
[8]
  competition (1-response value/blank value): -2%
[9]
  competition (1-response value/blank value): 100%
[10]
  Octet response value: -0.0081
[11]
  Octet response value: 0.427
[12]
  Octet response value: -0.0059

B2: CA518 (antibody, human IgG1, kappa, V domains shown)
VH: EVQLVESGGGVVQPGRSLRLSCAASGFTFSSYAMHWVRQAPGKGLEWVAVISYDGSNKYHADSVKGRFTISRDNSKNTLFLQMNSLRAEDTAVYYCVRDVYHYGSRSPYYYGMDVWGQGTTVTVSS
VL: DIQMTQSPSSVSASVGDRVTITCRASQGISSWLAWYQQKPGKAPKLLIYAASSLQSGVPSRFSGSGSGTDFTLTISSLQPEDVATYYCQKYNSAPFTFGPGTKVDIKR
notes: Intact IgG1
[1]
  binding result: no binding
[2]
  competition (1-response value/blank value): 98%
[3]
  competition (1-response value/blank value): 101%
[4]
  Octet response value (blank value, PBST buffer): 0.442
[5]
  competition (1-response value/blank value): 101%
[6]
  Octet response value: 0.281
[7]
  competition (1-response value/blank value): 101%
[8]
  competition (1-response value/blank value): 19%
[9]
  competition (1-response value/blank value): 99%
[10]
  Octet response value: -0.0046
[11]
  Octet response value: 0.415
[12]
  Octet response value: -0.0041

B3: CA67 (antibody, human IgG1, kappa, V domains shown)
VH: EVQLVESGGGVVQPGRSLRLSCAASGFTFSSYAMHWVRQAPGKGLEWVAVISYDGSNKYYADSVKGRFTISRDNSKNTLYLQMNSLRAEDTAVYYCARDVYHYGSRSPYYYGMDVWGQGTTVTVSS
VL: DIQMTQSPSSLSASVGDRVTITCRASQAISNYLAWYQQKPGKVPKLLIYAASTLHPGVPSRFSGSGSGTDFTLTISSLQPEDVATYYCQKYNSAPFTFGPGTKVDIKR
notes: Intact IgG1
[1]
  binding result: no binding
[2]
  competition (1-response value/blank value): 102%
[3]
  competition (1-response value/blank value): 103%
[4]
  Octet response value (blank value, PBST buffer): 0.425
[5]
  competition (1-response value/blank value): 103%
[6]
  Octet response value: 0.33
[7]
  competition (1-response value/blank value): 103%
[8]
  competition (1-response value/blank value): 5%
[9]
  competition (1-response value/blank value): 102%
[10]
  Octet response value: -0.0133
[11]
  Octet response value: 0.423
[12]
  Octet response value: -0.012

B4: reference antibody hL49 (antibody, human IgG1, kappa, V domains shown)
VH: QVQLQESGPGLVKPSETLSLTCTVSGDSITSGYWNWIRQPPGKGLEYIGYISDSGITYYNPSLKSRVTISRDTSKNQYSLKLSSVTAADTAVYYCARRTLATYYAMDYWGQGTLVTVSS
VL: DFVMTQSPLSLPVTLGQPASISCRASQSLVHSDGNTYLHWYQQRPGQSPRLLIYRVSNRFSGVPDRFSGSGSGTDFTLKISRVEAEDVGVYYCSQSTHVPPTFGQGTKLEIKR
notes: also called H149; hL49 analogy
[1]
  binding result: no binding
[2]
  competition (1-response value/blank value): -6%
[3]
  competition (1-response value/blank value): -6%
[4]
  Octet response value (blank value, PBST buffer): 0.347
[5]
  competition (1-response value/blank value): -5%
[6]
  Octet response value: 0.0169
[7]
  competition (1-response value/blank value): -3%
[8]
  competition (1-response value/blank value): 95%
[9]
  competition (1-response value/blank value): -7%
[10]
  Octet response value: 0.456
[11]
  Octet response value: 0.177
[12]
  Octet response value: 0.435
